Reference: the domain aggregation screens of Martell et al. (2025)

Assay: soluble fraction after stress (log2 fold change); higher = more stays soluble; pooled small domains, quantitative proteomics
Settings: stress: pH 4
Outline: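 Custom libraries of small protein domains were pooled and measured with high-throughput quantitative proteomics after pH 4 stress. The read-out is the fold change in the amount of each domain that stays soluble after the acid stress, taken as a measure of aggregation propensity. Fold changes are on a log2 scale, and higher values mean more of the domain stayed soluble.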

Row | Sequence | soluble fraction (log2)
1 | HMLPDPIYEAFMMASDLGIVVRNGPQYAYPDKETGEVLYKALGREKFLQLMKDNDGLLTSIETEIRSM | -1.3
2 | HMLPKTVTLIDPVSGVAKTVTWVPALTLYSARRKAGLNRVPNTATIDRGGRELTGKRGSTLQPGDVVRW | ≥ 0.43
3 | HMLPPLGDQELELLRFITESAPITVREAAESYGKDRGLARTTVLTMMERLRAKGYLTRSESGAANEYSP | -0.148
4 | HMLPPVFLTIDANENVIVRKDGEPVQTLNKFELGAFARSQAENSAEQPVVLAADKSIKYEVVMEVI | -0.378
5 | HMLPRLVLSPGTEVLATVMGKYENGMSLVKISSHLFAMDLPSRVQVGDSLRMTFLHQDARPTFALA | -0.142
6 | HMLPSDLDEGNRRRQLIEGAARLFRAKGFDGTSTRDIAAAAGMRSGSPFYHFDSKNALLYVVVQEGM | -0.115
7 | HMLPSWLPTDAWEAFLEARVAMKARPTERAKGLLLGELSKLVSQGQDARAVLEQSVQRGWRGLFPVK | 0.0676
8 | HMLPSWPGVSEFEVARLLRRGRARGSLTLDEVIDVVRDAELTSELIAGIRSSLRAEGIDFEET | -1.85
9 | HMLPTLSLSVKIYKGEGDIALDLEEMVKAFDQLNFGSYPFSEKGVHGTNIVIRGNDKKHMEEAEDKVRSLT | -0.959
10 | HMLPVDALFAQHPALIVTLGQTEKLKHGAAIRDWHFADGTYRVYSETGEFLLLGTVKGQILTTVKSFFE | -0.828
11 | HMLQARKFTHIQGYEFEAEFLRTNGEFVELQDPQGRKKWFPISNFIQDDKDFIKEQAGNLSS | -0.903
12 | HMLQEFTLELATAVVQEFRDQPGALINALHKLQETFGYVDEAAMPVLARLFNLSRAEVHGVASFYHDFRRS | -1.35
13 | HMLQEHVLEIRHPSWNDAFRIIGHDGWRTQTGAHAAILSYDEEELNIKWDSWGYERFIRDEKGIFRLAA | -0.165
14 | HMLQESDPEALRGIVKSVLVDHAAVAEEYRAGKQSVLQFLVGQGMKASKGAGNPGLIRDLMLEEL | -0.184
15 | HMLQLSDAISRVESFLQGQNRNLAFSIDENTERSVVTVLDSDTGDVIRQIPSEELLVLAKRIQELQQD | -1.19
16 | HMLQMSDSSALEAILDEVLGSEMGQKALSDIEAGNMKAMGFIIGQSMKLSKGQANPQIINKLLQQRLK | -0.487
17 | HMLQNLGFKPDLEIRHFPGIVLPDIHRSKKTISLLYTLLAGDIKKLPENEINYKDSKIISSYLWTLLRYH | 0.22
18 | HMLQSGSDYLIEQVRMYTATGQREYMDNYFEELNTTRRRENALEYFAEHYGDNDAFTLLKSAMTTSQN | -0.691
19 | HMLQVRRILQLLADGYSKRQISQQTAVSRNTIDSYEDRFHLTGKSYQELLSMEDGELSGIVYP | 0.321
20 | HMLQVSDENFVVELVQKVLLDNPSSVQEYKNGKESVLQFLIGQAMKASKGTANPQIVKEIMLKLL | -0.443
21 | HMLQYSQEIEEAQKILQNLGLYKGEIDGINGVNTKSAIKEFQRKSGLIIDGILGPNTTSALSKGAESYITV | 0.0398
22 | HMLRISEEVWALVEKTLREDWSPEQVSGKLKASGISVSHERIYQHIYADKRVGGTLWTHLRR | -0.767
23 | HMLRLLEIIAGNEVSKEINSQVIKYYKALKNKKIEEINNLTPSYNKLIISFDLKKKNFREMKKIIEDISIN | -0.436

Row | Sequence | soluble fraction (log2)
24 | HMLRPEEMIYHEMLDAILDRRLEPGMKLVEEDLAKTFGVSRARIRATFLQLAHDKLINLVPNRGAFVAEP | -0.561
25 | HMLRRNQVQSQVIPRENGSYVVELQLRDDVDSILRLELTAATEAMARDLADRFRQDPEGVYTRLLSALY | -1.57
26 | HMLRTEYLTVNYAKASEVAELVTASGFLSSRGSITVDERTNTLLLQDTATNIDEVRFMLEQLD | -0.868
27 | HMLSADLLDKIQRIDSLEQQGKYAQAEKEARALLSDPSITPSERASVQNILSSIARKKAAQAQ | 0.0475
28 | HMLSAGTTEQRLAMLQYQWEKQSETYSALGPNNGVVTLGQIRNTMAKIAELAGFKDAAQFWMPVPMDYDV | -0.491
29 | HMLSAPMPGTVLEVHVKEGQRVREGQTLVVMEAMKMEHRVQAPRAGVVTKLHYSEGDRVDVGAILVEIG | -1.31
30 | HMLSAQEIPVEDIATRDFVLAEDVVSAKKVLLLPKGVDLSWFGSAKKRLVQRLKSEGVTHIRVFA | 0.008
31 | HMLSFSEAERAVLSLLNRRPDLSAKALASELAVSARTVERYLQSLQQKGKLLRVGAKKGGYWQV | 0.115
32 | HMLSGNLTADAHVHRGLQALSDGRNEDALVDFTKATEVQADFAEAWNKRATVNYLLGRYDAAVLDIQKTLE | 0.0958
33 | HMLSLDDAAFERYDLTMREREVLLLLLNRLTYEEIAERLFISTNTVKTHVGNVYKKTGVSSRKELVSK | -0.953
34 | HMLSLGQQIRNHVLSRIESGEWPEGSRIPSEAKLVELLGASRMTIHIALRDLSAEGVLLRKQGAGTFVAPR | -0.553
35 | HMLSRKEVFTVSQKDIEKNPIGAADKFFDGHVGIHKLLVVDEEDRLRGLFTLSDIERINDEQ | -0.0114
36 | HMLSRTYDSSGPDVKIRGTAQTVADKYMSLARDAQSSGDRVMAENYLQHAEHYNRIIAAAQAQ | 0.221
37 | HMLSSEQQQKLDSLSRKELEVAELVSHGATNKMIARTMNITERTVKAHLTAIFQKMNIPDRLSLAIFFRDL | 0.0769
38 | HMLSSNEIKEIFALFDKSNRGQVATSELGTLVRALNLNPTETEITDMQSKVDPKGQGSFTLDVLEKVVQD | -0.929
39 | HMLSVNREQVEQSLKQEWGFDYDKNLRAAQRAIDVYGDDDLKLLLNGPTGNDPAIVKLFARLGGEVTEE | -0.813
40 | HMLSYIELTVDNTSKASYIMTDKMKINNFKIIGNNTIRVYENKVSPQDISRTLSMNNVSIEALGRKS | -0.253
41 | HMLSYNINEESKSSIMNVNVLKNNFASIDVEKLQNIIFTTFKKYNYYLNDFSSMNLLLHLLIIVDREL | -0.172
42 | HMLTEKEEEVMQILWDNGPLFVREILEFYPDPKPHYNTVSTVIRVLEEKNFASHKAYGNTYQYFP | 0.18
43 | HMLTLEDMTRINSIISPRIKKGQSLYHIAKNNGDELNISESTLRRLVMTGEMDAGIIDLPQAVK | -0.333
44 | HMLTLTNREKQVLVYIAKGHQVAQIAYELKLSGHTINGYIKTIYQKLHISSRAEAALLAQQYGL | -0.138
45 | HMLTRQNFHGIKLPTIHEYIDLLNSRVNANIDKTNNWQSSVSHLRTYLNSHNINAVSKESINNYIDERLN | 0.0397
46 | HMLTRRQSEVLDFIRQFAESESMPPTLHEIAKGMGFSSDNAARDHVRALARKGAIDLVGGTSRGIRLR | -0.331

Row | Sequence | soluble fraction (log2)
47 | HMLTRSASREELDQLLKRLRQNLKQKNFFWPPDKEKSLVLYLENLFSKFPLNSSDIRFLHGIIRTLSEK | -0.114
48 | HMLVGKSVIMKTNESSSGMIAGKVNYWENIDGKIYLGINGKLYDIADVDTVLDNDYYDKLVN | -1.14
49 | HMLVKKYTEEETGRQAELSKQLAELSKAYYNTGNSMVDDAVFDKLRDELSSLEKESGFAYDISPNVS | -0.276
50 | HMLVNNSTIETVIDFANVKFGMELTKDQVSEQLRNLSFSQTLKLINSMKADDNDAFSEIIDL | -1.89
51 | HMLVSFGDHLKRYIYERAGIEEPFGEVPQEIYRDIAVDSFRETYTPKSMNPTSTKLPALVNNWLIQ | -0.388
52 | HMLVSVSNYLGQNVDTVKSDLEALGLVVKLKEQQTDRESENGAVLEQSIEGGSKVSAGTPITLTYGK | -0.00697
53 | HMLWTHIALPVRSLDDTMAFYDKYTTLENIHERQDPETNMRSVWLANPGDKTEQAARFVLVLI | -0.126
54 | HMMTDAEKTFIFFSHLSSVEDHIAYGDKQFYMSLFWQHENKRELSSSQLYHLERLYNKYSMEEIEKKEEFS | -1.07
55 | HMMTDEEFLRIAGYMKQRYGIDLGQKKVIMNGRLENHIKSGGWSSFHAFMNDLEKDSSGKLEKELVNLLTT | -0.367
56 | HMMTLEESYKLLQVSHNASDIEITKAFKKLALLYHPDKNPSNIDWANKAMASINVAYNTIITHRFKEK | -0.2
57 | HMNAAYDEELDFIFSLSEKGKWEEAEAEIGLLLQKHPEDATLQRIGEWVTTQKILLRQQAVEDRIRS | -0.679
58 | HMNAEWMFDARKIPGLVMNYLRRIAVRAIEEKHYSPELVADLFGIDRTSIYDWLRKYRQQGEEALDTRKA | 0.0142
59 | HMNAFEIYPNPASNLIRIDAEFTVAKIFSQTGNLIQTSTTKEIDVYNLANGIYFVKLDDSPSMVKFVIN | -1.09
60 | HMNALTEAESKLLERMNKAGIHAEITTKKAAGILQRSENGARTVLNSLVKKGYLTVETNKAPYIYHLH | 0.301
61 | HMNAMFEKVLAAVMGFIGVSAFAKNADGKSEMTSDQEKRLTDKWGSKFVEEFKNDLLEYEKNGNAAEDAV | -0.332
62 | HMNAPKKPLSAYFLFSQEERLKVKAENPDYSITEVAKELGKRWATLNPDIKTVYEQRYQDARRIYETEMNT | -0.102
63 | HMNAQLTTIPDLDGMNMRAATAMLSSLGLEVKRIGSGTVFAQFPKAGAAMRPGSMVTIRGKAKSL | 0.22
64 | HMNATLSSSYPTSVVTDGEIYKLTFGLNGKYNGQEQITVKPHGDSNIYDSGGLRAYQNTQSNNVVTLN | -0.254
65 | HMNATQLSNTQKQIRTQLLERLSNNPLTVKQLADRMFVPIDTILKEITALIQEQKIIEDKGGKLQIN | 0.168
66 | HMNAVDLLSPQEQRIFELIGEGMSNRQIADVMYLAEKTVKNYVSNVLMKLGMERRTEAAALAARLDERQK | -0.468
67 | HMNAVITTQKAKQIALAHAGLSEADVNYVKAELENDDGVQVYDIEFYSKNIEYDYDINAVTGEIMSFDHDI | -0.623
68 | HMNAVYPNPFVSEIYIGENNRSVEIYNLNGGLVYGMSQPSSRIDVSGLAAGSYILIKKDSSGHISSHKIMK | -0.261
69 | HMNDAARQTTDILQHVRSSGSISFRDLWRLFMPFMAYRDFDAAVKSLVAAGHIATTENERKELHLIAF | -1.42
